Data set [1] concerns the target T1, RAD51 (Homo sapiens, UniProt Q06609 1-339). Description: DNase I protection; 2 mM ATP; FPA: 5 nM 6-FAM DNA, 37 C, 2 mM nucleotide where stated (buffer not given in material); EMSA: 0.05 uM 6-FAM DNA, 5%/15% native PAGE; RAD51 filaments: 2 mM ATP. To be noted: protein: recombinant, tags: none, chain copies: 10. (Mobility shift assays separate free from complexed probe on a gel.)

Data set [2] has as its target RAD51;SWSAP1 (hSWS1-SWSAP1, WT);hSWS1 (Homo sapiens;Homo sapiens;Homo sapiens, UniProt Q06609;Q6NVH7;Q19AV6 1-339;22-250;1-140, ||). Description: DNase I protection; 2 mM ATP; Shu increases digestion of filament; FPA: 5 nM 6-FAM DNA, 37 C, 2 mM nucleotide where stated (buffer not given in material); EMSA: 0.05 uM 6-FAM DNA, 5%/15% native PAGE; RAD51 filaments: 2 mM ATP. Conditions: protein: recombinant;recombinant;recombinant, tags: none;N-terminal 6xHis-TEV, cleaved;none.

Data set [3] addresses T1, RAD51. Kind of data set: competition (fluorescence intensity); 2 mM ATP; 100x unlabeled dT39 lowers signal ~30%; FPA: 5 nM 6-FAM DNA, 37 C, 2 mM nucleotide where stated (buffer not given in material); EMSA: 0.05 uM 6-FAM DNA, 5%/15% native PAGE; RAD51 filaments: 2 mM ATP. To be noted: protein: recombinant; tags: none; chain copies: 10; label: 3' 6-FAM.
Data set [4] concerns the target T2, SWSAP1 (hSWS1-SWSAP1, WT);hSWS1 (Homo sapiens;Homo sapiens, UniProt Q6NVH7;Q19AV6 22-250;1-140, |).
T2 sequence 1: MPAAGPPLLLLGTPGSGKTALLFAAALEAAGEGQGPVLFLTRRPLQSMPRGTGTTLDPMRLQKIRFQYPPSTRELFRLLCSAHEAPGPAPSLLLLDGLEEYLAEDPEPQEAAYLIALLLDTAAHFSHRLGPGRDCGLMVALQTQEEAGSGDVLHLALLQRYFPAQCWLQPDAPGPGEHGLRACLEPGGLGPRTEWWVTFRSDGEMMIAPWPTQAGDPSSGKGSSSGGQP
T2 sequence 2: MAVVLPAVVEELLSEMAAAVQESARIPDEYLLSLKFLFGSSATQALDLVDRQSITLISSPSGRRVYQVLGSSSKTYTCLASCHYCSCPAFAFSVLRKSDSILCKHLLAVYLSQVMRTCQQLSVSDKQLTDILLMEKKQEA
Description: fluorescence polarization; no nucleotide; FPA: 5 nM 6-FAM DNA, 37 C, 2 mM nucleotide where stated (buffer not given in material); EMSA: 0.05 uM 6-FAM DNA, 5%/15% native PAGE; RAD51 filaments: 2 mM ATP. Conditions: protein: recombinant;recombinant, tags: N-terminal 6xHis-TEV, cleaved;none, copies: 1;1. In general terms: Polarisation of emitted light reports the rotation of a fluorescent probe.

Data set [5] has as its target T3, SWSAP1 K18A (Walker A);hSWS1 (Homo sapiens;Homo sapiens, UniProt Q6NVH7;Q19AV6 22-250;1-140, K39A|).
T3 sequence 1: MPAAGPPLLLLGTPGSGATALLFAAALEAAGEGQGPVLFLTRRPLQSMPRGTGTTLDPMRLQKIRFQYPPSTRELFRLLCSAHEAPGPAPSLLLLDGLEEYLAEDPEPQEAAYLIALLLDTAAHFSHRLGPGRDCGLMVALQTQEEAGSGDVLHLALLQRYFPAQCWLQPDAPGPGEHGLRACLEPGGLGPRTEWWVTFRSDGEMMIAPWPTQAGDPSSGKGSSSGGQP
T3 sequence 2: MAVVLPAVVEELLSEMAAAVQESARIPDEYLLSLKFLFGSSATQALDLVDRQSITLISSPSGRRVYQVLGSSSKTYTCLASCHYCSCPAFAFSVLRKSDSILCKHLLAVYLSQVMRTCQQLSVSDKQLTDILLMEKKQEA
Description: fluorescence polarization; 2 mM ADP; FPA: 5 nM 6-FAM DNA, 37 C, 2 mM nucleotide where stated (buffer not given in material); EMSA: 0.05 uM 6-FAM DNA, 5%/15% native PAGE; RAD51 filaments: 2 mM ATP. Conditions: protein: recombinant;recombinant, tags: N-terminal 6xHis-TEV, cleaved;none, copies: 1;1.

The target of data set [6] is T3, SWSAP1 K18A (Walker A);hSWS1. Description: fluorescence polarization; 2 mM ATP; FPA: 5 nM 6-FAM DNA, 37 C, 2 mM nucleotide where stated (buffer not given in material); EMSA: 0.05 uM 6-FAM DNA, 5%/15% native PAGE; RAD51 filaments: 2 mM ATP. To be noted: protein: recombinant;recombinant, tags: N-terminal 6xHis-TEV, cleaved;none, copies: 1;1.
Data set [7] shares this target. Description: fluorescence polarization; no nucleotide; FPA: 5 nM 6-FAM DNA, 37 C, 2 mM nucleotide where stated (buffer not given in material); EMSA: 0.05 uM 6-FAM DNA, 5%/15% native PAGE; RAD51 filaments: 2 mM ATP. Conditions: protein: recombinant;recombinant, tags: N-terminal 6xHis-TEV, cleaved;none, copies: 1;1.
In data set [8] the target is T4, SWSAP1 D96A (Walker B);hSWS1 (Homo sapiens;Homo sapiens, UniProt Q6NVH7;Q19AV6 22-250;1-140, D117A|).
T4 sequence 1: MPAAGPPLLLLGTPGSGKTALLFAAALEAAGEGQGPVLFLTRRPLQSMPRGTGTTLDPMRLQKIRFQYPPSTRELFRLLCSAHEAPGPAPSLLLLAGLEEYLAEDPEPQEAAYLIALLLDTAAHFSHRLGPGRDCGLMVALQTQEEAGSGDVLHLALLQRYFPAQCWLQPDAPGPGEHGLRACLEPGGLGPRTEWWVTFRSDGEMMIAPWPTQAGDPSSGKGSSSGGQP
T4 sequence 2: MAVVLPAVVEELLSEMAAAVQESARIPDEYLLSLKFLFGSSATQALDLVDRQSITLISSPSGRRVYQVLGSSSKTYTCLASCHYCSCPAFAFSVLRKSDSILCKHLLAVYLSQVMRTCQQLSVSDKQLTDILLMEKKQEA
The description is as above. To be noted: protein: recombinant;recombinant, tags: N-terminal 6xHis-TEV, cleaved;none, copies: 1;1.

In data set [9] the target is T4, SWSAP1 D96A (Walker B);hSWS1. Description: fluorescence polarization; 2 mM ADP; FPA: 5 nM 6-FAM DNA, 37 C, 2 mM nucleotide where stated (buffer not given in material); EMSA: 0.05 uM 6-FAM DNA, 5%/15% native PAGE; RAD51 filaments: 2 mM ATP. Conditions: protein: recombinant;recombinant, tags: N-terminal 6xHis-TEV, cleaved;none, copies: 1;1.
The target in data set [10] is T2, SWSAP1 (hSWS1-SWSAP1, WT);hSWS1. The description is as above. Conditions: protein: recombinant;recombinant, tags: N-terminal 6xHis-TEV, cleaved;none, copies: 1;1.
Data set [11] deals with T4, SWSAP1 D96A (Walker B);hSWS1. Kind of data set: fluorescence polarization; 2 mM ATP; FPA: 5 nM 6-FAM DNA, 37 C, 2 mM nucleotide where stated (buffer not given in material); EMSA: 0.05 uM 6-FAM DNA, 5%/15% native PAGE; RAD51 filaments: 2 mM ATP. Conditions: protein: recombinant;recombinant, tags: N-terminal 6xHis-TEV, cleaved;none, copies: 1;1.
The target in data set [12] is T2, SWSAP1 (hSWS1-SWSAP1, WT);hSWS1. The description is as above. Conditions: protein: recombinant;recombinant, tags: N-terminal 6xHis-TEV, cleaved;none, copies: 1;1.
Where [13] appears, read: label: 3' 6-FAM on strand 1, 3' overhang 20 nt.
The mark [14] stands for this setting: label: 3' 6-FAM on strand 1, fork 1:2, 19 bp duplex, 20 nt arms.
Setting [15] is: label: 3' 6-FAM on strand 1, 5' overhang 20 nt.
[16] abbreviates: label: 3' 6-FAM on strand 1, blunt.
Where [17] appears, read: label: 5' 6-FAM on strand 1, blunt.

T1 sequence (Q06609 whole entry): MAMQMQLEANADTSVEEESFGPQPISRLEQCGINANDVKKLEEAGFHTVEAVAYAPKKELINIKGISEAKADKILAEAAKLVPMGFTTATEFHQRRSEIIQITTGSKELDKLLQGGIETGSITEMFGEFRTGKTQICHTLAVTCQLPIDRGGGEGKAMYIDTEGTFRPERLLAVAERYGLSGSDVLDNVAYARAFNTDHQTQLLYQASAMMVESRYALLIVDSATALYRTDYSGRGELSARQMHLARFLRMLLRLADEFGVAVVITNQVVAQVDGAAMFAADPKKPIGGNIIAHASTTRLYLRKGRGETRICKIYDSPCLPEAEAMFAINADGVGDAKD
Sequence of RAD51;SWSAP1 (hSWS1-SWSAP1, WT);hSWS1 (Q06609 whole entry, one chain of several): as the sequence (Q06609 whole entry) above

B1: *5'-(T)30 (ssDNA)
DNA: TTTTTTTTTTTTTTTTTTTTTTTTTTTTTT
As for B1, the binding result (with RAD51 [1] (label: 5' 6-FAM); in data set [2] (label: 5' 6-FAM)) was “binds” in each case.

B2: *3'-(T)39 (ssDNA)
DNA: TTTTTTTTTTTTTTTTTTTTTTTTTTTTTTTTTTTTTTT
Turning to B2, the binding result with RAD51 [3] was “binds”.

B3: *3'-(T)30 (ssDNA)
DNA: TTTTTTTTTTTTTTTTTTTTTTTTTTTTTT
As for B3, the binding result (in the data set with RAD51 [1] (label: 3' 6-FAM); in data set [2] (label: 3' 6-FAM)) was “binds” throughout.

B4: ss21 (ssDNA)
DNA: ACTTACAGCACAGCGGTTTTT
The Kd is the concentration at which binding is half-saturated. As to B4, in [4] (label: 5' 6-FAM), the Kd came to 10.1 ± 0.9 µM.

B5: ss26 (ssDNA)
DNA: ACTGCCCTTACAGCACAGCGGTTTTT
Consider B5, for which the equilibrium dissociation constant (Kd) in data set [4] (label: 5' 6-FAM) is 9.9 ± 0.6 µM.

B6: 3'-overhang (dsDNA)
DNA 1: CTTGACAAGCTTGCGCACT
DNA 2: AGTGCGCAAGCTTGTCAAGGCACTTTTTTTTTTTTTTTT
For B6, the equilibrium dissociation constant (Kd) in data set [5] (setting [13]) was determined as 8.7 ± 0.4 µM; in data set [6] (setting [13]), 7.3 ± 0.6 µM; in data set [7] (setting [13]), 7.1 ± 0.2 µM; in data set [8] (setting [13]) it was 11 ± 0.8 µM; in data set [4] (setting [13]) it was 14.9 ± 0.7 µM.

B7: ss39 (ssDNA)
DNA: TTTTTTTTTTTTTTTTTTTTCTTGACAAGCTTGCGCACT
Regarding B7, the dissociation constant Kd in [5] (label: 3' 6-FAM) is 7.4 ± 0.2 µM; in data set [9] (label: 3' 6-FAM) it was 3.9 ± 0.3 µM; in [10] (label: 3' 6-FAM), 3.2 ± 0.2 µM; in data set [6] (label: 3' 6-FAM) it was 9.5 ± 0.7 µM; in data set [11] (label: 3' 6-FAM) it was 7.8 ± 0.4 µM; in data set [12] (label: 3' 6-FAM) it was 6.9 ± 0.7 µM. Further, the Kd in data set [7] (label: 3' 6-FAM) was 9.9 ± 0.4 µM; in data set [8] (label: 3' 6-FAM), 10.4 ± 0.7 µM; in data set [4] (label: 3' 6-FAM) it was 11.2 ± 0.4 µM.

B8: Fork (dsDNA)
DNA 1: TTTTTTTTTTTTTTTTTTTTCTTGACAAGCTTGCGCACT
DNA 2: AGTGCGCAAGCTTGTCAAGGCACTTTTTTTTTTTTTTTT
As for B8, the Kd in data set [5] (setting [14]) was found to be 7 ± 0.8 µM; in data set [9] (setting [14]), 33.9 ± 0.9 µM; in data set [10] (setting [14]), 25.6 ± 0.7 µM; in data set [6] (setting [14]), 8.2 ± 0.4 µM; in data set [11] (setting [14]) it was 22.4 ± 0.4 µM; in [12] (setting [14]), 18.6 ± 0.7 µM. The dissociation constant (Kd) in [7] (setting [14]) stood at 4.6 ± 0.4 µM; in data set [8] (setting [14]), 7.4 ± 0.4 µM; in [4] (setting [14]) it was 7.7 ± 0.5 µM.

B9: 5'-overhang (dsDNA)
DNA 1: TTTTTTTTTTTTTTTTTTTTCTTGACAAGCTTGCGCACT
DNA 2: AGTGCGCAAGCTTGTCAAG
Take B9: the equilibrium dissociation constant (Kd) is 3.4 ± 0.3 µM in data set [5] (setting [15]); 5.1 ± 0.2 µM in data set [9] (setting [15]); 8.9 ± 0.4 µM in data set [10] (setting [15]); 3.9 ± 0.2 µM in data set [6] (setting [15]); 4.3 ± 0.4 µM in data set [11] (setting [15]); 3.6 ± 0.1 µM in data set [12] (setting [15]). In addition, the equilibrium dissociation constant (Kd) in data set [7] (setting [15]) amounted to 3.9 ± 0.3 µM; in [8] (setting [15]) it was 3.8 ± 0.2 µM; in data set [4] (setting [15]), 3.6 ± 0.2 µM.

B10: ds39 (dsDNA)
DNA 1: TTTTTTTTTTTTTTTTTTTTCTTGACAAGCTTGCGCACT
DNA 2: AGTGCGCAAGCTTGTCAAGAAAAAAAAAAAAAAAAAAAA
In the case of B10, the dissociation constant (Kd) was 8.73 ± 0.7 µM in data set [5] (setting [16]); 10 ± 0.9 µM in [6] (setting [16]); 12.2 ± 1 µM in [7] (setting [16]); 13.6 ± 0.6 µM in [8] (setting [16]); 19.2 ± 0.9 µM in [4] (setting [16]).

B11: ss31 (ssDNA)
DNA: ACTGCCCTTACAGCACAGCGGTTTTTTTTTT
In the case of B11, the dissociation constant (Kd) in data set [4] (label: 5' 6-FAM) worked out at 5.7 ± 0.3 µM.

B12: ds21 (dsDNA)
DNA 1: ACTTACAGCACAGCGGTTTTT
DNA 2: AAAAACCGCTGTGCTGTAAGT
Regarding B12, the Kd in data set [4] (setting [17]) came to 43.7 ± 0.4 µM.

B13: ds26 (dsDNA)
DNA 1: ACTGCCCTTACAGCACAGCGGTTTTT
DNA 2: AAAAACCGCTGTGCTGTAAGGGCAGT
For the molecule B13, in data set [4] (setting [17]), the Kd was determined as 18.8 ± 0.7 µM.

Source of the values: article PMC12167799, “The role of human Shu complex in ATP-dependent regulation of RAD51 filaments during homologous recombination–associated DNA damage response”.
